From patent US20190241655A1 (Merck Sharp & Dohme, published 2019)
Residue numbers refer to the chain shown, from its start.

Target: T1, ILT3Fc (human)
T1 construct: also called ILT3Fc-fusion protein; human ILT3Fc
Experiment: Octet (BLI), ILT3Fc on anti-human Fc biosensors, antibody supernatant 167 nM

T1 sequence (chain, as listed by the source limits assumed): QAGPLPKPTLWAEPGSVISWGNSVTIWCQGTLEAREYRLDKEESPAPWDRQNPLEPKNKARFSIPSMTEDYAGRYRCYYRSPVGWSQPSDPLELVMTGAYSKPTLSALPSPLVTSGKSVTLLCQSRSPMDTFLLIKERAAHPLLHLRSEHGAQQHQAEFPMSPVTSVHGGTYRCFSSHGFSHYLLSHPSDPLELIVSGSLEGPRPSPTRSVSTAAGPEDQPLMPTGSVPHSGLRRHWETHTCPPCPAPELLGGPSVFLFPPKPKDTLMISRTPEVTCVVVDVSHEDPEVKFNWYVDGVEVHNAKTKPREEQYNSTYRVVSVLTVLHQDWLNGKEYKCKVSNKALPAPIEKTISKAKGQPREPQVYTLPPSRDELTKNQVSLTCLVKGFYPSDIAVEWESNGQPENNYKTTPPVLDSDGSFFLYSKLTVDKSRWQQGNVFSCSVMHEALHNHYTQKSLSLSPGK

B1: DX446 (antibody, V domains shown)
VH: QIQLVQSGPELKKPGETVKISCKASGYTFTNYRMTWVKQAPGKGLKWMGWINTNTGDPTYAEELKGRFAFSSETSASTAYLQINNLKNEDTATYFCAREGFFNYAMDYWGQGTSVTVSS
VL: DILLTQSPAILSVSPGKRVSFSCRASQSIGTSIHWYQQRTNGSPRLLIKYASESISGIPSRFSGSGSGTDFTLSINSVESEDIADYYCQQSNSWPPTFGAGTKLELK
notes: Mouse hybridoma anti-ILT3 antibody tested as hybridoma supernatant; also called Anti-ILT3 (DX446)
- binding result: binds

B2: DX435 (antibody, V domains shown)
VH: EVQLQQSGPEMVKPGASVKISCKASGYAFTDYNIHWVKKSHGKSPEWIGHIYPYNKDTVFNQNKTKATLTVDKSTTTAYMDLRSLTSEDSAVYYCARGAVGYFDYWGQGTTLTVSS
VL: DIQMTQSPASLSASVGETVTITCRASGNIHNFLAWYQQKQGKSPQLLVYNAKTLADGVPSRFSGSGSGTQYSLKINSLQPEDFGSYYCQHFWSYPFTFGAGTKLELK
notes: Mouse hybridoma anti-ILT3 antibody tested as hybridoma supernatant
- binding result: binds

B3: DX440 (antibody, V domains shown)
VH: EVQLQQSGPELVKPGASVKISCKASGYTFSDYNMHWVKQSHGKSLKWIGHIFPYIGDTVYNQKFTSKATLTVDNSSSTGYMEIRSLTSEDSAVYYCARGAVGYFDYWGQGTTLTVSS
VL: B2 VL with F32Y, L46F, S85T, Y94F
notes: as for B2
- binding result: binds

B4: DX439 (antibody, V domains shown)
VH: EVQLQQPGPELVKPGASVKISCKASGYTFTDYNMHWVRQRHGKSLEWIGHIYPYNGNTVYNQRFKNKATLNVDNFSSTAYMELRSLTSEDSAVYYCARGAVGYFDHWGQGTTLTVSS
VL: B2 VL with K42R, S85N, K103N
notes: as for B2
- binding result: binds
